Laboratory results reported in PMC3805524, “GmSAL1 Hydrolyzes Inositol-1,4,5-Trisphosphate and Regulates Stomatal Closure in Detached Leaves and Ion Compartmentalization in Plant Cells” (PLoS ONE, 2013).

Substrate: O=P(O)(O)O[C@@H]1[C@H](O)[C@H](O)[C@@H](OP(=O)(O)O)[C@H](OP(=O)(O)O)[C@H]1O
Assay: purified protein
Format: biochemical, Glycine max
Settings: 25 mM Tris-HCl pH 7.5, 1 mM MgCl2, 37°C, 30 min, IP3 0.0125-0.2 mM

B1: GmSAL1 (Glycine max) (protein)
chain: MPYEKEFAAAKKAATLAARLCKKVQKALLQSDVHSKSDKSPVTVADYGSQALVSFILERELPSEPFSLVAEEDSGDLRKESGQDTLKRITELVNDTLASEGSNSFSTLTTDDVLAAIDGGKSEGGSVGRHWVLDPIDGTKGFVRGDQYAIALALLDEGKVVLGVLACPNLPLASIGSNQQLSSSNEVGCLFFAKVGDGTYMQALGGSTQTRVHVCDIDNPEEASFFESFEAAHSSHDLSSSIAEKLGVKAPPVRIDSQAKYGALSRGDGAIYLRFPHKGYREKIWDHAAGSIVVTEAGGIAMDAAGNPLDFSKGKFLDVVSGIIVTNQKLKASLLRAVKEALNEKVSSL
notes: cloning primers encode N-terminal MPYEKEF and C-terminal KVSSL
- Km: 10.8 ± 0.1 µM
- kcat: 1.13 ± 0.217 s⁻¹
